Measurements reported in US12415833B2, “Method for activating helper T cell” (International Institute of Cancer Immunology, Inc., priority 2010, dated 2025).
No end group written: not given here.

What was measured:
Experiment in all cases: Folding test of HLA class II monomer protein with peptide using HPLC
Assay type in all cases: binding
Details in all cases: 50-fold molar peptide, 37° C. overnight, compared with control (solvent only), folding criterion not less than 0.1 minute
[1] = molecular target: HLA class II monomer protein DRB1*0101 (Homo sapiens, UniProt P01903+P01911, A100R/D57E/F55L/F60I/F76Y/I96L/L162R/M171V/P40L/Q125E/R42F/V115G/Y59C)
Description: (§1) Next, in order to evaluate a binding ability of WT1-332 with MHC class II molecules, a folding test of 7 types of HLA class II monomer proteins (DRB1*1501, 0101, 0405, 0803, 0901, 1502, or DRB4*0101) with WT1-332 was carried out using HPLC. Briefly, a folding reaction solution was prepared by mixing an HLA class II monomer protein, a peptide [a peptide binding to each protein (positive control), a peptide not binding to each protein (negative control), and WT1-332], and a folding buffer. After reacting the solution at 37° C., the retention time was analyzed using HPLC. The folding with WT1-332 was evaluated by utilizing a shift of the retention time due to the binding of an HLA class II monomer protein with a peptide.
(§2) HLA class II monomer proteins which had been freeze-preserved at −80° C. were thawed on ice. The HLA class II monomer proteins thawed were adjusted using a dilution buffer so that they were contained in an amount of 0.05 mg (1×10−^9 mol) in 83 μL.
(§3) About 1 mg of each peptide was weighed by an electronic balance, transferred to a glass vial, and dissolved in DMSO to give a concentration of 20 mg/mL.
(§4) The amount of a peptide which is a 50-fold molar amount relative to an HLA class II monomer protein was calculated using the following calculation formula. Amount of peptide required: 1×10^−9 mol×50=5×10^−8 mol (amount of peptide required) […]×(Molecular weight of peptide)×1,000=(amount of peptide required)(mg) (Amount of peptide required)/[purity of peptide/100]=(amount of peptide added)(mg) [(Amount of peptide added)/20 mg/mL]×1,000=(amount of peptide solution added)(μL) Calculation of Amount of Folding Buffer Added
(§5) As a folding buffer, a 10% amount of a mixed solution of an HLA class II monomer protein and a peptide was added. The amount of the folding buffer added was calculated using the following calculation equation. [83 μL (Amount of HLA class II monomer protein)+(amount of peptide solution in 50-fold molar amount)]×0.1=amount of folding buffer added Analysis of Folding Using HPLC
(§6) To a glass vial charged with an HLA class II monomer protein, a peptide solution and a folding buffer were added in a calculated amount, and the mixture was allowed to stand at 37° C. overnight. HPLC (Waters 2695 Separation Module) was started, and a Seperdex 200 column was equilibrated with an equilibrating buffer. To all samples, 300 μL of the equilibrate buffer was added and well mixed, and a 100 μL portion of the mixture was used as a sample injection volume to calculate the retention time. Analysis time was 50 minutes. The criterion for the folding of an HLA class II monomer protein with a peptide is a shift of the retention time of not less than 0.1 minute as compared with a control (solvent only).

[2] = molecular target: HLA class II monomer protein DRB1*0901 (Homo sapiens, UniProt P01903+P01911, A100R/A103E/D57H/D86V/F55Y/F60I/F76Y/I96F/K127E/L162R/M171V/P40D/Q125H/Q99R/R33Q/R42F/S133A/S66N/T210M/V115G/W38K/Y107V/Y59G/Y89S)
Description: as §1, §2, §3, §4, §5, §6

[3] = molecular target: HLA class II monomer protein DRB1*0803 (Homo sapiens, UniProt P01903+P01911, A100R/A103L/A169T/D86S/F76Y/H45Y/K41T/L162R/M171V/P40S/Q125H/Q178H/Q39Y/Q99D/R218S/R42G/S66Y/V115G/W38E)
Description: as §1, §2, §3, §4, §5, §6

[4] = molecular target: HLA class II monomer protein DRB1*1501 (Homo sapiens, UniProt P01903+P01911)
Description: as §1, §2, §3, §4, §5, §6

Measured: degree of shift of the retention time

KRYFKLSHLQMHSRKH [WT1-332]
not less than 0.1 minute: [1] | [2] | [3] | [4]
